The supplement of paper PMC10899765

Key:
Conditions in all cases: 20 nM; 72 h
[1] = tested on: MCF10A; assay: one-nucleolus phenotype percent effect (relative to siNT 0% and siNOL11 100%); higher = more cells with one nucleolus (ribosome biogenesis inhibition)
Description: (§1)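 After 72 h, cells were fixed and stained with Hoechst and anti-fibrillarin, and nucleoli per nucleus were counted with CellProfiler. Values are plate-adjusted percent effect for the one-nucleolus and 5+ nucleoli phenotypes, normalised to siNT (0%) and to the positive controls siNOL11 or siKIF11 (100%), as the mean of biological triplicates. Percent viability is the nuclei count relative to siNT.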

[2] = tested on: MCF10A; assay: percent viability (nuclei count relative to siNT); higher = more viable cells
Description: as §1

[3] = tested on: MCF10A; assay: 5+ nucleoli phenotype percent effect (relative to siNT 0% and siKIF11 100%); higher = more cells with five or more nucleoli
Description: as §1

Sequence | one-nucleolus phenotype percent effect [1] [%] | percent viability [2] [%] | 5+ nucleoli phenotype percent effect [3] [%]
GAAAGUGCUUCCUUUUAGAGGC [hsa-miR-526b-3p] | -23.4 | 105 | 57.2
GAAAUCAAGCGUGGGUGAGACC [hsa-miR-551b-5p] | -15.5 | 57.5 | 40.3
GAACCCAUGAGGUUGAGGCUGCAGU [hsa-miR-1273d] | 3.74 | 39.1 | -8.88
GAACGCCUGUUCUUGCCAGGUGG [hsa-miR-614] | -10.6 | 72.8 | -0.465
GAACGCGCUUCCCUAUAGAGGGU [hsa-miR-523-3p] | -18.2 | 119 | 23.3
GAACGGCUUCAUACAGGAGUU [hsa-miR-337-5p] | 9.16 | 53.8 | -25.8
GAACUCACCCUCUGCUCCCAG [hsa-miR-6750-3p] | -8.73 | 99 | 29.7
GAAGAACUGUUGCAUUUGCCCU [hsa-miR-4511] | -30.8 | 121 | 26.2
GAAGAAUAGGAGGGACUUUGU [hsa-miR-6507-5p] | -12.9 | 79.1 | 35.1
GAAGACUUCUUGGAUUACAGGGG [hsa-miR-8087] | 2.61 | 112 | -8.56
GAAGAUGGACGUACUUU [hsa-miR-4426] | 31.4 | 28.5 | -32.9
GAAGAUGGUGCUGUGCUGAGGAA [hsa-miR-4647] | 22.7 | 60.7 | -5.89
GAAGCUCUCCCCUCCCCGCAG [hsa-miR-6796-3p] | -14.7 | 103 | 5.79
GAAGGACACUGGUGUCAACGGCU [hsa-miR-8080] | -9.1 | 118 | 19.9
GAAGGACCUGCACCUUCG [hsa-miR-6816-3p] | 49.8 | 35.3 | -36.7
GAAGGCAGCAGUGCUCCCCUGU [hsa-miR-3714] | 19.5 | 9.1 | -29.2
GAAGGCGCUUCCCUUUAGAGCG [hsa-miR-525-3p] | 37.2 | 42.5 | -16.5
GAAGGCGCUUCCCUUUGGAGU [hsa-miR-524-3p] | 35.1 | 70.4 | -9.32
GAAGUGCUUCGAUUUUGGGGUGU [hsa-miR-373-3p] | -22.2 | 65.4 | 47.5
GAAGUGUGCCGUGGUGUGUCU [hsa-miR-595] | 12.4 | 30.6 | -22
GAAGUUGCCCAUGUUAUUUUCG [hsa-miR-495-5p] | 1.67 | 42.2 | -1.1
GAAGUUGUUCGUGGUGGAUUCG [hsa-miR-382-5p] | 27.9 | 37.7 | -18.5
GAAUACGUCUGGUUGAUCC [hsa-miR-6082] | -25.8 | 186 | 67.8
GAAUACUAAGUAAAAAAUCAGUA [hsa-miR-8084] | -33.5 | 215 | 66.7
GAAUAUGGGUAUAUUAGUUUGG [hsa-miR-5583-3p] | -14.1 | 65.4 | 43.7
GAAUCGGAAAGGAGGCGCCG [hsa-miR-3610] | -7.32 | 93.4 | 19.9
GAAUGUUGCUCGGUGAACCCCU [hsa-miR-409-3p] | 9.98 | 35.9 | -31.1
GACAAUUGUUGAUCUUGGGCCU [hsa-miR-7849-3p] | 8.55 | 74.7 | -19.1
GACACAUGACCAUAAAUGCUAA [hsa-miR-4643] | -11.7 | 109 | 36.8
GACACGGGCGACAGCUGCGGCCC [hsa-miR-602] | -18.7 | 91.9 | 45.6
